PMC5183740

Experiments:
[1] = target: SA-HA2 (streptavidin core fused to residues 76-130 of HA2 of A/PARIS/2590/2009 (H1N1)) (Streptomyces avidinii | influenza A virus A/PARIS/2590/2009 (H1N1)); experiment: SDS-PAGE of unheated samples
[2] = target: SA-NP (streptavidin core fused to the nucleoprotein NP of A/PARIS/2590/2009 (H1N1)) (Streptomyces avidinii | influenza A virus A/PARIS/2590/2009 (H1N1)); experiment: SDS-PAGE of unheated samples

SA-HA2 (streptavidin core fused to residues 76-130 of HA2 of A/PARIS/2590/2009 (H1N1))
stoichiometry N [1]: 4

SA-NP (streptavidin core fused to the nucleoprotein NP of A/PARIS/2590/2009 (H1N1))
stoichiometry N [2]: 4
